Measured values as given in patent publication US20040002450A1, “Y17 - isolated molecules comprising epitopes containing sulfated moieties, antibodies to such epitopes, and uses thereof” (priority 2000, published 2004).

B1: Y1-cys-kak: Y1 scFv with cysteine and lysine-alanine-lysine at the carboxyl end, forms a dimer; SEQ ID NO: 212 (protein)
scFv: MEVQLVESGGGVVRPGGSLRLSCAASGFTFDDYGMSWVRQAPGKGLEWVSGINWNGGSTGYADSVKGRFTISRDNAKNSLYLQMNSLRAEDTAVYYCARMRAPVIWGQGTLVTVSRGGGGSGGGGSGGGGSSELTQDPAVSVALGQTVRITCQGDSLRSYYASWYQQKPGQAPVLVIYGKNNRPSGIPDRFSGSSSGNTASLTITGAQAEDEADYYCNSRDSSGNHVVFGGGTKLTVLGGGGCKAK
B2: Y17 scFv: second human scFv clone selected on platelets; SEQ ID NO: 203, heavy chain CDR3 SEQ ID NO: 20 (protein, listed as Homo sapiens)
scFv: MKYLLPTAAAGLLLLAAQPAMAEVQLVESGGGVVRPGGSLRLSCAASGFTFDDYGMSWVRQAPGKGLEWVSGINWNGGSTGYADSVKGRFTISRDNAKNSLYLQMNSLRAEDTAVYYCARLTHPYFWGQGTLVTVSRGGGGSGGGGSGGGGSSELTQDPAVSVALGQTVRITCQGDSLRSYYASWYQQKPGQAPVLVIYGKNNRPSGIPDRFSGSSSGNTASLTITGAQAEDEADYYCNSRDSSGNHVVFGGGTKLTVLGAAAEQKLISEEDLNGAA

Experiments:
[1] = molecular target: T1, GPIb (glycocalicin) derived from platelets (Homo sapiens, UniProt P07359); test: ELISA to GC (glycocalicin), monomer versus dimer; type: binding
T1 construct: glycocalicin (soluble, extracellular fragment of GPIbα); from tissue; host or cells: human platelets
Experimental: An ELISA assay was performed to ascertain the differences in binding between the monomer (the Y1 scFv-also known as Y1-kak) and the dimer Y1-cys-kak (the cysteine dimer) for antigen GPIb (glycocalicin) derived from platelets. A polyclonal anti single chain antibody and/or a novel polyclonal anti-VL (derived from rabbits) and anti-rabbit HRP, were used to detect the binding to GPIb. […] For instance, to reach 0.8 OD units 12.8 μg/ml of monomer was used compared to only 0.1 μg/ml of dimer.
100 ml of purified glycocalicin was incubated in a 96 flat well maxisorp plates, overnight at 4 degrees celsius. The plate was washed with PBST (PBS+0.05% tween) 3 times, then […] of PBST-milk (PBST+2% Non fat milk), for 1 hr at room temperature. The plate was washed with PBST, and the monomer or dimer (100 ml) was added in PBST-milk at different concentrations for 1 hr at room temp. Then the plate was washed and anti-VL polyclonal (derived from immunized rabbits with VL derived from Y1) (1:100 diluted in PBST-milk) was added for an hour. The plate was washed and anti-rabbit HRP was added for an additional hour. The plate was washed 5 times and 100 μl TMB substrate was added for approximately 15 minutes then 100 μl of 0.5H2SO4 was added to stop the reaction. The optical density of the plate was measured at 450 nm in an ELISA reader.

[2] = test system: washed platelets; test: Ristocetin-induced agglutination of washed platelets after scFv preincubation; type: cell-based, human
Experimental: Aggregation is determined in PRP due to the presence of thrombotic agents, while agglutination is determined in washed platelets. The effect of Y1 (scFv) on agglutination of washed platelets was tested at various concentrations of Y1. Platelets were pre-incubated with Y1 scFv, Y17 scFv, Y16-scFv, or a control TM-1 scFv for 4 min at 37° C. before being exposed to ristocetin, an inducer of platelet agglutination and aggregation.
Platelet concentrate in acid-citrate-dextrose (ACD) was obtained from a blood bank, platelets were isolated, washed once in buffer containing ACD and saline in a ratio of 1:7. The platelets were centrifuged at 800 g for 10 min after each wash and were resuspended in Tyrodes solution (2 mM MgCl2, 137 mM NaCl, 2.68 mM KCl, 3 mM NaH2PO4, 0.1% glucose, 5 mM Hepes and 0.35% albumin, pH 7.35) and count the number of cells.
(§1) For platelet aggregation studies, platelet rich plasma (PRP) and washed platelets were stirred at 500 rpm at 37° C. in whole blood Lumiaggregometer (Chronolog, Havertown, Pa.). The difference in light transmission through the platelet suspension and suspending medium was taken as 100% aggregation. The effect of Y1 on platelet aggregation was evaluated by addition of different concentration of Y1 before the addition of agonist, and the effect was recorded for four minutes.
The effect of Y17-scFv on vWF-dependent agglutination of platelets was tested at different concentrations of Y17.

[3] = test system: platelet-rich-plasma (PRP); test: Ristocetin-induced aggregation of platelet-rich-plasma after scFv preincubation; type: cell-based, human
Experimental: The effect of Y1 (scFv) on aggregation of platelet-rich-plasma (PRP) was tested at various concentrations of Y1. PRP was pre-incubated with Y1 scFv, Y17 scFv, or a control sTM-1cFv for 4 min at 37° C. before being exposed to ristocetin, an inducer of platelet agglutination and aggregation. A reversible inhibitory effect was observed when scFv was added to PRP prior to the addition of ristocetin, and it was dose dependent.
Blood was collected into a tube containing 3.8% sodium citrate. Platelet-rich plasma was prepared by centrifugation at 250×g for 10 minutes.
as §1

[4] = test system: platelet GPIbα; test: Western blot/FACS of endoprotease-cleaved platelet GPIbα and glycocalicin; type: binding, human; conditions: immunoblots and FACS
Text: (§2) Immunoblotting and endoprotease cleavage techniques were used to identify the epitope for Y1 on the surface membrane of platelets.
(§3) The enzyme O-Sialoglycoprotein endoprotease from Pasteurella haemolytica (Cedarlan CLE 100) selectively cleaves human platelet GPIb and specifically cleaves only proteins containing sialylated, O-linked glycans. […] This enzyme has been reported to cleave GPIb, which is heavily O-glycosylated, but not GPIIb-IIIa or other receptors on platelets. GPIbα was digested with O-Sialoglycoprotein endoprotease in order to further establish the binding of Y1 to the molecule.
(§4) Mocarhagin [Sigma L4515a] is a cobra venom metalloproteinase that cleaves platelet GPIbα specifically at a single site between residues glu-282 and asp-283, thereby generating two stable products: a ˜45-kDa N-terminal fragment (His1-Glu282), which is released into the supernatant, and a membrane-bound ˜95 kDa C-terminal fragment.
(§5) Cathepsin G (Sigma C4428), a neutrophil serine protease, cleaves glycocalicin at a first cleavage site between residues Leu-275 and Tyr-276 and at a second cleavage site between residues Val-296 and Lys-297. Cathepsin G treatment of glycocalicin generates two N-terminal fragments: a small N-terminal 42 kDa fragment (His1-Leu275), a large N-terminal 45 kDa N-terminal fragment (His1-Val-296), and corresponding ˜95 kDa C-terminal fragments. (FIG. 1).
(§6) For mocarhagin digestion, 10^8 washed platelets in TS buffer (0.01 M Tris, 0.15 M sodium chloride, pH 7.4) containing 1 mM calcium chloride were treated with 12 μg/ml mocarhagin (final concentration) for 1 hour at 22° C. and digestion was stopped by adding EDTA to 0.01 M.
(§7) 10^6 platelets in 0.1 M Tris buffer pH 7.4 containing 0.2% albumin and protease inhibitors (10 μM leupeptin, 0.24 mM PMSF) was incubated with 0.14 mg/ml O-Sialoglycoprotein endoprotease (final concentration) for 45 min at 37° C. and digestion was stopped by adding sample buffer and boiling. The sample buffer used contained 3% SDS, 12% glycerol, 50 mM Tris HCl, 2% β-mercaptoethanol, and 0.03% bromphenol blue.
(§8) For mocarhagin digestion, glycocalicin in TS buffer containing 1 mM calcium chloride was incubated with 10 μg/ml mocarhagin (final concentration) for 1 hour at 22° C. and digestion was stopped by adding EDTA to 0.01 M.
(§9) For cathepsin G digestion, glycocalicin in TS buffer containing 1 mM calcium chloride was incubated with 3.4 μg/ml cathepsin G (final concentration) for 4 hour at 22° C. and digestion was stopped by adding PMSF to 1 mM.

[5] = molecular target: T2, platelet GPIbα (Homo sapiens, UniProt P07359); test: as above; type: binding
T2 construct: endogenous in cells; host or cells: washed human platelets (blood-bank platelet concentrate)
Text: as §2, §3, §4, §5, §6, §7, §8, §9

Molecule	activity relative to the monomer [1]	concentration used to reach 0.8 OD units [1] [µg/mL]	effect on vWF-dependent platelet agglutination in washed platelets induced by ristocetin (in words) ([2]; final concentration of 10, 25 or 50 μg/ml)	% inhibition ([2]; scFv 25 μg/ml, washed platelets, ristocetin) [%]	% agglutination ([2]; scFv 25 μg/ml, washed platelets, ristocetin = 100%) [%]	effect on ristocetin-induced platelet aggregation in PRP (in words) ([3]; concentration not given)	% inhibition ([3]; scFv 38 μg/ml, PRP, ristocetin) [%]	% aggregation ([3]; scFv 38 μg/ml, PRP, ristocetin = 100%) [%]	binding to washed platelets after O-Sialoglycoprotein endoprotease [4]	binding to cathepsin G fragments of glycocalicin ([5]; Western blot)	binding after mocarhagin treatment of washed platelets ([5]; Western blot of platelet lysates)
B1	approximately 100 fold	0.1									
B2			did not inhibit	15	85	did not inhibit	0	100	abolishes binding	bound to the larger fragment (His1-Val-296), but not to the smaller fragment (His1-Leu275)	binding of Y17 to the N-terminal 45 kDa tryptic fragment
